The record followed here is the Immune Epitope Database (IEDB).

For assay [1], the target named is HLA-B*51:01. As to the kind of experiment: IEDB peptide-MHC binding, purified MHC/direct/fluorescence; filed as Kd, often an IC50 or EC50 that approximates it; ≥ and ≤ were set here for values at or beyond the usual limits of such assays.
Assay [2] addresses HLA-B*07:02. Described as above.
For assay [3], the target named is HLA-B*15:01. The assay is described as above.
Assay [4] deals with HLA-A*01:01. The assay is described as above.
The target in assay [5] is HLA-B*27:05. Described as above.
Assay [6] has as its target HLA-B*08:01. Described as above.
In assay [7] the target is HLA-B*40:01. The description is as above.
Assay [8] deals with HLA-A*31:01. The description is as above.
For assay [9], the target named is HLA-A*26:01. The assay is described as above.
Assay [10] deals with HLA-A*03:01. The assay is described as above.
Assay [11] deals with HLA-A*24:03. The assay is described as above.
Assay [12] addresses HLA-A*02:01. The assay is described as above.
The target of assay [13] is HLA-A*30:01. The assay is described as above.
The target in assay [14] is HLA-A*11:01. The description is as above.
Assay [15] concerns the target HLA-A*69:01. The assay is described as above.
Assay [16] has as its target HLA-B*58:01. Described as above.
Assay [17] has as its target HLA-B*39:01. The assay is described as follows: IEDB peptide-MHC binding, purified MHC/competitive/fluorescence; filed as Kd, often an IC50 or EC50 that approximates it; ≥ and ≤ were set here for values at or beyond the usual limits of such assays. Conditions: source organism: Homo sapiens.
Assay [18] concerns the target HLA-B*46:01. The description is as above. Conditions: source organism: Homo sapiens.
Assay [19] has as its target HLA-B*51:01. The description is as above. Conditions: source organism: Homo sapiens.
Assay [20] has as its target HLA-B*15:01. The assay is described as above. Conditions: source organism: Homo sapiens.
The target in assay [21] is HLA-A*02:19. The assay is described as above. Conditions: source organism: Homo sapiens.
The target of assay [22] is HLA-A*26:01. The assay is described as above. Conditions: source organism: Homo sapiens.
The target in assay [23] is HLA-A*03:01. Described as above. Conditions: source organism: Homo sapiens.
Assay [24] has as its target HLA-A*68:02. The assay is described as above. Conditions: source organism: Homo sapiens.
Assay [25] has as its target HLA-A*02:01. The description is as above. Conditions: source organism: Homo sapiens.
Assay [26] addresses HLA-A*02:12. Described as above. Conditions: source organism: Homo sapiens.
In assay [27] the target is HLA-B*57:01. The description is as above. Conditions: source organism: Homo sapiens.
The target in assay [28] is HLA-B*18:01. The assay is described as above. Conditions: source organism: Homo sapiens.
The target in assay [29] is HLA-B*27:03. The assay is described as above. Conditions: source organism: Homo sapiens.
In assay [30] the target is HLA-A*69:01. The description is as above. Conditions: source organism: Homo sapiens.
Assay [31] deals with HLA-B*15:17. Described as above. Conditions: source organism: Homo sapiens.
The target in assay [32] is HLA-B*53:01. As to the kind of experiment: IEDB peptide-MHC binding, purified MHC/competitive/radioactivity; filed as Kd, often an IC50 or EC50 that approximates it; ≥ and ≤ were set here for values at or beyond the usual limits of such assays. Conditions: source organism: Dengue virus 1 Brazil/97-11/1997.
Assay [33] deals with HLA-B*39:01. As to the kind of experiment: IEDB peptide-MHC binding, purified MHC/direct/fluorescence; filed as Kd, often an IC50 or EC50 that approximates it; ≥ and ≤ were set here for values at or beyond the usual limits of such assays. Conditions: source organism: Mycobacterium tuberculosis.
The target in assay [34] is HLA-A*29:02. The description is as above. Conditions: source organism: Mycobacterium tuberculosis.
The target in assay [35] is HLA-B*46:01. The assay is described as above. Conditions: source organism: Mycobacterium tuberculosis.
For assay [36], the target named is HLA-B*48:01. The description is as above. Conditions: source organism: Mycobacterium tuberculosis.
Assay [37] addresses HLA-B*57:01. Described as above. Conditions: source organism: Mycobacterium tuberculosis.
For assay [38], the target named is HLA-B*18:01. The assay is described as above. Conditions: source organism: Mycobacterium tuberculosis.
The target of assay [39] is HLA-B*44:02. The assay is described as above. Conditions: source organism: Mycobacterium tuberculosis.
Where [40] appears, read: source organism: Yersinia pestis.
Setting [41] is: source organism: Haemophilus influenzae.
The mark [42] stands for this setting: source organism: Pseudomonas aeruginosa.
The mark [43] stands for this setting: source organism: Corynebacterium efficiens.
The mark [44] stands for this setting: source organism: Corynebacterium glutamicum.
Where [45] appears, read: source organism: Mycobacterium tuberculosis.

Regarding LPLEFWQAW, the Kd – broadly, the concentration at which binding is half-saturated – was ≥ 20 µM in [1] (setting [40]), 0.235 µM in [2] (setting [40]) and ≥ 20 µM in assay [3] (source organism: Yersinia enterocolitica subsp. enterocolitica 8081).

With MTMRRRLFK, the Kd was 14.5 µM in assay [4] (setting [41]); ≥ 20 µM in assay [5] (setting [41]); 5.63 µM in assay [6] (setting [41]); ≥ 20 µM in [7] (setting [41]); ≥ 20 µM in assay [2] (setting [41]); ≥ 20 µM in assay [3] (setting [41]). Also, the dissociation constant Kd in assay [8] (setting [41]) is 0.0202 µM; in [9] (setting [41]) it was ≥ 20 µM; in [10] (setting [41]) it was 0.0531 µM; in assay [11] (setting [41]), ≥ 20 µM; in assay [12] (setting [41]), ≥ 20 µM; in [13] (setting [41]), 0.00063 µM. In addition, the Kd in assay [14] (setting [41]) was 0.0142 µM; in assay [15] (setting [41]) it was ≥ 20 µM.

As to RSFAERLDR, the Kd in assay [4] (setting [42]) was ≥ 20 µM; in assay [5] (setting [42]), 3.46 µM; in [6] (setting [42]), ≥ 20 µM; in [7] (setting [42]) it was ≥ 20 µM; in [2] (setting [42]), ≥ 20 µM; in [16] (setting [42]), ≥ 20 µM. Further, the Kd in [3] (setting [42]) was ≥ 20 µM; in assay [8] (setting [42]), 0.0287 µM; in assay [9] (setting [42]), ≥ 20 µM; in assay [10] (setting [42]) it was 0.286 µM; in assay [11] (setting [42]), ≥ 20 µM; in assay [12] (setting [42]), ≥ 20 µM. For the same sequence, the Kd in assay [13] (setting [42]) was 0.344 µM; in assay [14] (setting [42]) it was 0.117 µM; in assay [15] (setting [42]) it was ≥ 20 µM.

As for SLFNWLWYE, the Kd in [17], in assay [18], in assay [19], in assay [20], in assay [21] and in assay [22] was ≥ 20 µM each time. Also, the dissociation constant Kd in assay [23] is ≥ 20 µM; in assay [24], ≥ 20 µM; in assay [25] it was 0.196 µM; in [26], ≥ 20 µM; in [27], ≥ 20 µM; in assay [28], ≥ 20 µM. In addition, the Kd in [29], in assay [30] and in [31] was ≥ 20 µM in each case.

In the case of KLGDQFGRK, the Kd in assay [4] (setting [43]), in assay [5] (setting [43]), in [6] (setting [43]), in assay [7] (setting [43]), in assay [2] (setting [43]) and in [16] (setting [43]) was ≥ 20 µM throughout. For the same sequence, the Kd in assay [3] (setting [43]) is ≥ 20 µM; in assay [8] (setting [44]), 4.37 µM; in [9] (setting [43]), ≥ 20 µM; in assay [10] (setting [44]), 0.242 µM; in assay [11] (setting [43]), ≥ 20 µM; in assay [12] (setting [43]) it was ≥ 20 µM. Also, the values for the Kd in assay [13] (setting [44]), in assay [14] (setting [44]) and in [15] (setting [43]) were 1.49 µM, 0.07 µM and ≥ 20 µM, respectively.

Turning to CPTQGEATL, the equilibrium dissociation constant (Kd) in [32] is 0.0199 µM; in assay [1] (source organism: Dengue virus), ≥ 20 µM.

On to QQDTNSAGL, for which the Kd is ≥ 20 µM in assay [4] (setting [45]); 0.301 µM in assay [33]; ≥ 20 µM in [34]; ≥ 20 µM in [5] (setting [45]); ≥ 20 µM in assay [35]; ≥ 20 µM in [2] (setting [45]). The Kd in assay [16] (setting [45]), in [3] (setting [45]), in assay [36], in assay [8] (setting [45]), in assay [10] (setting [45]) and in [37] was ≥ 20 µM each time. The Kd in assay [38], in [15] (setting [45]) and in assay [39] was ≥ 20 µM in each case.
